In one experiment the target is HA-VHL (UniProt P40337). In words: co-immunoprecipitation of cotransfected proteins.
Experiment [1] concerns the target FL-Jade-1 (tagged library clone, transfected) (human). In words: co-immunoprecipitation of cotransfected proteins.
Experiment [2] concerns the target human Jade-1 protein (human). In words: cell-based or functional assay.
Experiment [3] concerns the target human Jade-1 protein (human). In words: estimate based upon co-localization data (immunofluorescence).

Chain of UniProt P40337 (P40337 whole entry): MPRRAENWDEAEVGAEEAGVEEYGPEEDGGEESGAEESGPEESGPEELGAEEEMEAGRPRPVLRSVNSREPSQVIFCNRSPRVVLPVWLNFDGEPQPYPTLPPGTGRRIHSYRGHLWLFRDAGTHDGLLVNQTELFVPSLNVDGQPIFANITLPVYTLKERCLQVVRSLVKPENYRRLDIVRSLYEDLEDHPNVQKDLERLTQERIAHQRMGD

The substance “FL-Jade-1 (tagged library clone, transfected)” gave a percent of Jade-1 in the cell lysate immunoprecipitable with VHL with HA-VHL of 30 to 40%.

With HA-VHL (from UniProt P40337 1-213), the percent of VHL in the cell lysate immunoprecipitable with Jade-1 (vice-versa) in experiment [1] lay in the range of 30 to 40%.

For the substance “von Hippel-Lindau (VHL) protein, wild-type human (from UniProt P40337 1-213)”, in experiment [2], the endogenous Jade-1 protein half-life in VHL-plus 786-O renal cancer cells (~40 minutes in VHL-minus cells), metabolic labeling turned out to be 1 h; the half-life of Jade-1 transiently transfected with VHL (data not shown) worked out at 1.5 h; the increase of Jade-1 protein half-life with cotransfected VHL in 293 cells, pulse-chase came to 2 fold. Further, in experiment [3], the percent of VHL that associates with Jade-1 is less than 10%.

Values taken from patent US20050123920A1.
